Drawing on paper PMC11446282 (2024), this text covers percent of parent for 13 variants.

The chains are these.
B1: IER2 (found with purified B55 variants) [human] / B55α WT (immunopurified, Fig. 2) [not stated] (parent complex)
chain 1: MEVQKEAQRIMTLSVWKMYHSRMQRGGLRLHRSLQLSLVMRSARELYLSAKVEALEPEVSLPAALPSDPRLHPPREAESTAETATPDGEHPFPEPMDTQEAPTAEETSACCAPRPAKVSRKRRSSSLSDGGDAGLVPSKKARLEEKEEEEGASSEVADRLQPPPAQAEGAFPNLARVLQRRFSGLLNCSPAAPPTAPPACEAKPACRPADSMLNVLVRAVVAF
chain 2: MAGAGGGNDIQWCFSQVKGAVDDDVAEADIISTVEFNHSGELLATGDKGGRVVIFQQEQENKIQSHSRGEYNVYSTFQSHEPEFDYLKSLEIEEKINKIRWLPQKNAAQFLLSTNDKTIKLWKISERDKRPEGYNLKEEDGRYRDPTTVTTLRVPVFRPMDLMVEASPRRIFANAHTYHINSISINSDYETYLSADDLRINLWHLEITDRSFNIVDIKPANMEELTEVITAAEFHPNSCNTFVYSSSKGTIRLCDMRASALCDRHSKLFEEPEDPSNRSFFSEIISSISDVKFSHSGRYMMTRDYLSVKIWDLNMENRPVETYQVHEYLRSKLCSLYENDCIFDKFECCWNGSDSVVMTGSYNNFFRMFDRNTKRDITLEASRENNKPRTVLKPRKVCASGKRKKDEISVDSLDFNKKILHTAWHPKENIIAVATTNNLYIFQDKVN

The test covers variants of B1. Put plainly: immunopurification of YFP-B55α variants (IP: YFP), Western blot quantification; read off a plot. Background: Immunoblotting shows a protein as a band on a membrane.
chain 2 MAGAGGGNDIQWCFSQVKGAVDDDVAEADIISTVEFNHSGELLATGDKGGRVVIFQQEQENKIQSHSRGEYNVYSTFQSHEPEFDYLKSLEIEEKINKIRWLPQKNAAQFLLSTNDKTIKLWKISERDKRPEGYNLKEEDGRYRDPTTVTTLRVPVFRPMDLMVEASPRRIFANAHTYHINSISINSDYETYLSADDLRINLWHLEITDRSFNIVDIKPANMEEATEVITAAEFHPNSCNTFVYSSSKGTIRLCDMRASALCDRHSKLFEEPEDPSNRSFFSEIISSISDVKFSHSGRYMMTRDYLSVKIWDLNMENRPVETYQVHEYLRSKLCSLYENDCIFDKFECCWNGSDSVVMTGSYNNFFRMFDRNTKRDITLEASRENNKPRTVLKPRKVCASGKRKKDEISVDSLDFNKKILHTAWHPKENIIAVATTNNLYIFQDKVN [chain 2 L225A]: the percent of parent was ~25%. Turning to chain 2 MAGAGGGNDIQWCFSQVKGAVDDDVAEADIISTVEFNHSGELLATGDKGGRVVIFQQEQENKIQSHSRGEYNVYSTFQSHEPEFDYLKSLEIEEKINKIRWLPQKNAAQFLLSTNDKTIKLWKISERDKRPEGYNLKEEDGRYRDPTTVTTLRVPVFRPMDLMVEASPRRIFANAHTYHINSISINSDYETYLSADDLRINLWHLEITDRSFNIVDIKPANMEELTEVITAAEFHPNSCNTFVYSSSKGTIRLCDMRASALCDRHSKLFEEPEDPSNRSFFSEIISSISDVKFSHSGRYMMTRDYLSVKIWDLNMENRPVETYQVHEYLRSKLCSLYENDCIADKFECCWNGSDSVVMTGSYNNFFRMFDRNTKRDITLEASRENNKPRTVLKPRKVCASGKRKKDEISVDSLDFNKKILHTAWHPKENIIAVATTNNLYIFQDKVN [chain 2 F343A], the percent of parent is ~30%.

On to chain 2 MAGAGGGNDIQWCFSQVKGAVDDDVAEADIISTVEFNHSGELLATGDKGGRVVIFQQEQENKIQSHSRGEYNVYSTFQSHEPEFDYLKSLEIEEKINKIRWLPQKNAAQFLLSTNDKTIKLWKISERDKRPEGYNLKEEDGRYRDPTTVTTLRVPVFRPMDLMVEASPRRIFANAHTYHINSISINSDYETYLSADALRINLWHLEITDRSFNIVDIKPANMEELTEVITAAEFHPNSCNTFVYSSSKGTIRLCDMRASALCDRHSKLFEEPEDPSNRSFFSEIISSISDVKFSHSGRYMMTRDYLSVKIWDLNMENRPVETYQVHEYLRSKLCSLYENDCIFDKFECCWNGSDSVVMTGSYNNFFRMFDRNTKRDITLEASRENNKPRTVLKPRKVCASGKRKKDEISVDSLDFNKKILHTAWHPKENIIAVATTNNLYIFQDKVN [chain 2 D197A], for which the percent of parent was ~7%.

Regarding chain 2 MAGAGGGNDIQWCFSQVKGAVDDDVAEADIISTVEFNHSGELLATGDKGGRVVIFQQEQENKIQSHSRGEYNVYSTFQSHEPEFDYLKSLEIEEKINKIRWLPQKNAAQFLLSTNDKTIKLWKISERDKRPEGYNLKEEDGRYRDPTTVTTLRVPVFRPMDLMVEASPRRIFANAHTAHINSISINSDYETYLSADDLRINLWHLEITDRSFNIVDIKPANMEELTEVITAAEFHPNSCNTFVYSSSKGTIRLCDMRASALCDRHSKLFEEPEDPSNRSFFSEIISSISDVKFSHSGRYMMTRDYLSVKIWDLNMENRPVETYQVHEYLRSKLCSLYENDCIFDKFECCWNGSDSVVMTGSYNNFFRMFDRNTKRDITLEASRENNKPRTVLKPRKVCASGKRKKDEISVDSLDFNKKILHTAWHPKENIIAVATTNNLYIFQDKVN [chain 2 Y178A], the percent of parent is ~55%. For the variant chain 2 MAGAGGGNDIQWCFSQVKGAVDDDVAEADIISTVEFNHSGELLATGDKGGRVVIFQQEQENKIQSHSRGEYNVYSTFQSHEPEFDYLKSLEIEEKINKIRWLPQKNAAQFLLSTNDKTIKLWKISERDKRPEGYNLKEEDGRYRDPTTVTTLRVPVFRPMDLMVEASPRRIFANAHTYHINSISINSDYETYLSADDLRINLWHLEITDRSFNIVDIKPANMEELTEVITAAEFHPNSCNTFVYSSSKGTIRLCDMRASALCDRHSKLFEEPEDPSNRSFFSEIISSISDVKFSHSGRYMMTRDYLSVKIWDLNMENRPVETYQVHEYLRSKLCSLAENDCIFDKFECCWNGSDSVVMTGSYNNFFRMFDRNTKRDITLEASRENNKPRTVLKPRKVCASGKRKKDEISVDSLDFNKKILHTAWHPKENIIAVATTNNLYIFQDKVN [chain 2 Y337A], the percent of parent is ~2%. For chain 2 MAGAGGGNDIQWCFSQVKGAVDDDVAEADIISTVEFNHSGELLATGDKGGRVVIFQQEQENKIQSHSRGEYNVYSTFQSHEPEFDYLKSLEIEEKINKIRWLPQKNAAQFLLSTNDKTIKLWKISERDKRPEGYNLKEEDGRYRDPTTVTTLRVPVFRPMDLMVEASPRRIFANAHTYHINSISINSDYETYLSADDLRINLWHLEITDRSFNIVDIKPANMEELTEVITAAEFHPNSCNTFVYSSSKGTIRLCDMRASALCDRHSKLFEEPEDPSNRSFFSEIISAISDVKFSHSGRYMMTRDYLSVKIWDLNMENRPVETYQVHEYLRSKLCSLYENDCIFDKFECCWNGSDSVVMTGSYNNFFRMFDRNTKRDITLEASRENNKPRTVLKPRKVCASGKRKKDEISVDSLDFNKKILHTAWHPKENIIAVATTNNLYIFQDKVN [chain 2 S287A], the percent of parent was ~67%. For chain 2 MAGAGGGNDIQWCFSQVKGAVDDDVAEADIISTVEFNHSGELLATGDKGGRVVIFQQEQENKIQSHSRGEYNVYSTFQSHEPEFDYLKSLEIEEKINKIRWLPQKNAAQFLLSTNDKTIKLWKISERDKRPEGYNLKEEDGRYRDPTTVTTLRVPVFRPMDLMVEASPRRIFANAHTYAINSISINSDYETYLSADDLRINLWHLEITDRSFNIVDIKPANMEELTEVITAAEFHPNSCNTFVYSSSKGTIRLCDMRASALCDRHSKLFEEPEDPSNRSFFSEIISSISDVKFSHSGRYMMTRDYLSVKIWDLNMENRPVETYQVHEYLRSKLCSLYENDCIFDKFECCWNGSDSVVMTGSYNNFFRMFDRNTKRDITLEASRENNKPRTVLKPRKVCASGKRKKDEISVDSLDFNKKILHTAWHPKENIIAVATTNNLYIFQDKVN [chain 2 H179A] the value was ~140%; for chain 2 MAGAGGGNDIQWCFSQVKGAVDDDVAEADIISTVEFNHSGELLATGDKGGRVVIFQQEQENKIQSHSRGEYNVYSTFQSHEPEFDYLKSLEIEEKINKIRWLPQKNAAQFLLSTNDKTIKLWKISERDKRPEGYNLKEEDGRYRDPTTVTTLRVPVFRPMDLMVEASPRRIFANAHTYHINSISINSDYETYLSADDLRINLWHLEITDRSFNIVDIKPANMEELTEVITAAEFHPNSCNTFVYSSSKGTIRLCDMRASALCDRHSKLFEEPEDPSNRSFFSEAISSISDVKFSHSGRYMMTRDYLSVKIWDLNMENRPVETYQVHEYLRSKLCSLYENDCIFDKFECCWNGSDSVVMTGSYNNFFRMFDRNTKRDITLEASRENNKPRTVLKPRKVCASGKRKKDEISVDSLDFNKKILHTAWHPKENIIAVATTNNLYIFQDKVN [chain 2 I284A], ~65%; for chain 2 MAGAGGGNDIQWCFSQVKGAVDDDVAEADIISTVEFNHSGELLATGDKGGRVVIFQQEQENKIQSHSRGEYNVYSTFQSHEPEFDYLKSLEIEEKINKIRWLPQKNAAQFLLSTNDKTIKLWKISERDKRPEGYNLKEEDGRYRDPTTVTTLRVPVFRPMDLMVEASPRRIFANAHTYHINSISINSDYETYLSADDARINLWHLEITDRSFNIVDIKPANMEELTEVITAAEFHPNSCNTFVYSSSKGTIRLCDMRASALCDRHSKLFEEPEDPSNRSFFSEIISSISDVKFSHSGRYMMTRDYLSVKIWDLNMENRPVETYQVHEYLRSKLCSLYENDCIFDKFECCWNGSDSVVMTGSYNNFFRMFDRNTKRDITLEASRENNKPRTVLKPRKVCASGKRKKDEISVDSLDFNKKILHTAWHPKENIIAVATTNNLYIFQDKVN [chain 2 L198A], ~3%. Consider chain 2 MAGAGGGNDIQWCFSQVKGAVDDDVAEADIISTVEFNHSGELLATGDKGGRVVIFQQEQENKIQSHSRGEYNVYSTFQSHEPEFDYLKSLEIEEKINKIRWLPQKNAAQFLLSTNDKTIKLWKISERDKRPEGYNLKEEDGRYRDPTTVTTLRVPVFRPMDLMVEASPRRIFANAHTYHINSISINSDYETYLSADDLRINLWHLEITDRSFNIVDIKPANMEELTEVIAAAEFHPNSCNTFVYSSSKGTIRLCDMRASALCDRHSKLFEEPEDPSNRSFFSEIISSISDVKFSHSGRYMMTRDYLSVKIWDLNMENRPVETYQVHEYLRSKLCSLYENDCIFDKFECCWNGSDSVVMTGSYNNFFRMFDRNTKRDITLEASRENNKPRTVLKPRKVCASGKRKKDEISVDSLDFNKKILHTAWHPKENIIAVATTNNLYIFQDKVN [chain 2 T230A], for which the percent of parent is ~50%.

As to chain 2 MAGAGGGNDIQWCFSQVKGAVDDDVAEADIISTVEFNHSGELLATGDKGGRVVIFQQEQENKIQSHSRGEYNVYSTFQSHEPEFDYLKSLEIEEKINKIRWLPQKNAAQFLLSTNDKTIKLWKISERDKRPEGYNLKEEDGRYRDPTTVTTLRVPVFRPMDLMVEASPRRIFANAHTYHINSISINSDYETYLSADDLRINLWHLEITDRSFNIVDIKPANMEELTEAITAAEFHPNSCNTFVYSSSKGTIRLCDMRASALCDRHSKLFEEPEDPSNRSFFSEIISSISDVKFSHSGRYMMTRDYLSVKIWDLNMENRPVETYQVHEYLRSKLCSLYENDCIFDKFECCWNGSDSVVMTGSYNNFFRMFDRNTKRDITLEASRENNKPRTVLKPRKVCASGKRKKDEISVDSLDFNKKILHTAWHPKENIIAVATTNNLYIFQDKVN [chain 2 V228A], the percent of parent was ~70%. For chain 2 MAGAGGGNDIQWCFSQVKGAVDDDVAEADIISTVEFNHSGELLATGDKGGRVVIFQQEQENKIQSHSRGEYNVYSTFQSHEPEFDYLKSLEIEEKINKIRWLPQKNAAQFLLSTNDKTIKLWKISERDKRPEGYNLKEEDGRYRDPTTVTTLRVPVFRPMDLMVEASPRRIFANAHTYHINSISINSDYETYLSADDLRINLWHLEITDRSFNIVDIKPANMEELTEVITAAEFHPNSCNTFVYSSSKGTIRLCDMRASALCDRHSKLFEEPEDPSNRSAFSEIISSISDVKFSHSGRYMMTRDYLSVKIWDLNMENRPVETYQVHEYLRSKLCSLYENDCIFDKFECCWNGSDSVVMTGSYNNFFRMFDRNTKRDITLEASRENNKPRTVLKPRKVCASGKRKKDEISVDSLDFNKKILHTAWHPKENIIAVATTNNLYIFQDKVN [chain 2 F280A] the value was ~83%; for chain 2 MAGAGGGNDIQWCFSQVKGAVDDDVAEADIISTVEFNHSGELLATGDKGGRVVIFQQEQENKIQSHSRGEYNVYSTFQSHEPEFDYLKSLEIEEKINKIRWLPQKNAAQFLLSTNDKTIKLWKISERDKRPEGYNLKEEDGRYRDPTTVTTLRVPVFRPMDLMVEASPRRIFANAHTYHINSISINSDYETYLSADDLRINLWHLEITDRSFNIVDIKPANMEELTEVITAAEFHPNSCNTFVYSSSKGTIRLCDMRASALCDRHSKLFEEPEDPSNRSFFSEIISSISDVKFSHSGRYMMTRDYLSVKIWDLNMENRPVETYQVHEYLRSKLCSLYENACIFDKFECCWNGSDSVVMTGSYNNFFRMFDRNTKRDITLEASRENNKPRTVLKPRKVCASGKRKKDEISVDSLDFNKKILHTAWHPKENIIAVATTNNLYIFQDKVN [chain 2 D340A], ~2%.
